B1: Abl interactor 2 (Homo sapiens), Q9NYB9 (parent)
chain: MAELQMLLEEEIPGGRRALFDSYTNLERVADYCENNYIQSADKQRALEETKAYTTQSLASVAYLINTLANNVLQMLDIQASQLRRMESSINHISQTVDIHKEKVARREIGILTTNKNTSRTHKIIAPANLERPVRYIRKPIDYTILDDIGHGVKWLLRFKVSTQNMKMGGLPRTTPPTQKPPSPPMSGKGTLGRHSPYRTLEPVRPPVVPNDYVPSPTRNMAPSQQSPVRTASVNQRNRTYSSSGSSGGSHPSSRSSSRENSGSGSVGVPIAVPTPSPPSVFPAPAGSAGTPPLPATSASAPAPLVPATVPSSTAPNAAAGGAPNLADGFTSPTPPVVSSTPPTGHPVQFYSMNRPASRHTPPTIGGSLPYRRPPSITSQTSLQNQMNGGPFYSQNPVSDTPPPPPPVEEPVFDESPPPPPPPEDYEEEEAAVVEYSDPYAEEDPPWAPRSYLEKVVAIYDYTKDKEDELSFQEGAIIYVIKKNDDGWYEGVMNGVTGLFPGNYVESIMHYSE
partner: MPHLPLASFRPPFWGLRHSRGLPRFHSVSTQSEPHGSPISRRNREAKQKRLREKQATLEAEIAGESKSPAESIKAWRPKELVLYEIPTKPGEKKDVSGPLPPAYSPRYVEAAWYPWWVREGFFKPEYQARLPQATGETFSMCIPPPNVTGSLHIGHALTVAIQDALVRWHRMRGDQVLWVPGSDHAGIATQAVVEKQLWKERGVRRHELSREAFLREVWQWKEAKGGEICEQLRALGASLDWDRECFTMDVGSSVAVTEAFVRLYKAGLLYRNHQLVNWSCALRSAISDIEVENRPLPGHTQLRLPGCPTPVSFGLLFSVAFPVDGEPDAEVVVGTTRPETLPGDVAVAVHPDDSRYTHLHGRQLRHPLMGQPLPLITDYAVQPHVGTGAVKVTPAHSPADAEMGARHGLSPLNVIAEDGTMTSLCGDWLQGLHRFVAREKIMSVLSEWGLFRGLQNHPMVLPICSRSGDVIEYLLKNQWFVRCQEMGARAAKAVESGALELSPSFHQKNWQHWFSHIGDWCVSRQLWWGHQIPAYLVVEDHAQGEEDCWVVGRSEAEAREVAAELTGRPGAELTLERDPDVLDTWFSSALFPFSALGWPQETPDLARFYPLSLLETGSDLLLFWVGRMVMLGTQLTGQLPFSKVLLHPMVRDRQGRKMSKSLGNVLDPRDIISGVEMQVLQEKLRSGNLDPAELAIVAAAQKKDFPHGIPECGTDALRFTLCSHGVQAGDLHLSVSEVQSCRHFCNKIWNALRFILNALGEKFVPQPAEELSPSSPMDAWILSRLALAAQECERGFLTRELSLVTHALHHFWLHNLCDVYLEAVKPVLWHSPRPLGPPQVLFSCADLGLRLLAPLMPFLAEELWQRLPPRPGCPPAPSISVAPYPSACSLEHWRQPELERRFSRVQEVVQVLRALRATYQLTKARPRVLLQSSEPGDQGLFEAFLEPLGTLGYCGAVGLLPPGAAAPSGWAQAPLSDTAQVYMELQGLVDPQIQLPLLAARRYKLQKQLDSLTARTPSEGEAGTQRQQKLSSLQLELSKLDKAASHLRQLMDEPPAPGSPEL
B2: Abl interactor 2 (Homo sapiens), Q9NYB9 (parent)
chain: B1 chain
partner: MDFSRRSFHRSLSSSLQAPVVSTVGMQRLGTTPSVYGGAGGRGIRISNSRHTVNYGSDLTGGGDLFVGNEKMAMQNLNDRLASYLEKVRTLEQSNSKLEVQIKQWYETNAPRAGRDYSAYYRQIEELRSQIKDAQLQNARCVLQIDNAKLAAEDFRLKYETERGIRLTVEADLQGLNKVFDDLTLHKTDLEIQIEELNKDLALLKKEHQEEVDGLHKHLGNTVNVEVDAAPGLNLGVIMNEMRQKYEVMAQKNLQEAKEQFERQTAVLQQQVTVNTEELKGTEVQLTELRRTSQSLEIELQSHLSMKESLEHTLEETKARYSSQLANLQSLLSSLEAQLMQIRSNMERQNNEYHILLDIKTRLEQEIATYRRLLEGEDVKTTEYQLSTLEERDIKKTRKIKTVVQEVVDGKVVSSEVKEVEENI
B3: Galectin-8 (Homo sapiens), O00214 (parent)
chain: MMLSLNNLQNIIYNPVIPFVGTIPDQLDPGTLIVIRGHVPSDADRFQVDLQNGSSMKPRADVAFHFNPRFKRAGCIVCNTLINEKWGREEITYDTPFKREKSFEIVIMVLKDKFQVAVNGKHTLLYGHRIGPEKIDTLGIYGKVNIHSIGFSFSSDLQSTQASSLELTEISRENVPKSGTPQLRLPFAARLNTPMGPGRTVVVKGEVNANAKSFNVDLLAGKSKDIALHLNPRLNIKAFVRNSFLQESWGEEERNITSFPFSPGMYFEMIIYCDVREFKVAVNGVHSLEYKHRFKELSSIDTLEINGDIHLLEVRSW
partner: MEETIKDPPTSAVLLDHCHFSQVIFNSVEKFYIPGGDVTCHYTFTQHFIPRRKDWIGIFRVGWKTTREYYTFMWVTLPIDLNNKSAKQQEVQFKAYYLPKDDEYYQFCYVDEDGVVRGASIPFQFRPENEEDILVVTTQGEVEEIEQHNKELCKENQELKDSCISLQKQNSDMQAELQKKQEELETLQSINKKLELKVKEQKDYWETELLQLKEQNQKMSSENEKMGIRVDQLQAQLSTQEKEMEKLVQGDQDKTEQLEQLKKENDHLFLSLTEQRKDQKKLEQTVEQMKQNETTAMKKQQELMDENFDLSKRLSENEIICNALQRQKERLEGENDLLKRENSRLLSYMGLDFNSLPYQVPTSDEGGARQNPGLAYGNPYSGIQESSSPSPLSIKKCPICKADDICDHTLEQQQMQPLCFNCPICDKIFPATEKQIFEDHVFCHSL
B4: U3 small nucleolar RNA-associated protein 25 homolog (Homo sapiens), Q68CQ4 (parent)
chain: MGKRGSRSQSQLLNTLTKKQKKHLRDFGEEHPFYDRVSRKEAKPQICQLSESSDSSDSESDSESEPQQVSGYHRLLATLKNVSEEEEEDEEEEEEEDSIVDDAEMNDEDGGSDVSVEEEMAAESTESPENVALSADPEGKEDGEEPPGTSQTSPEEFTDAKHESLFSLETNFLEEESGDNSSLKASQDPFLQHVNKELKEKAIQAVATNPKTTHELKWPILGQLFFSSKFQKLETFKPPKDIDLKSLHLQKPLESTWTKTNSQFLSGPQKSSSPFTPLQKELFLIMNSYRDLFYPERTALKNGEEIRHVYCLHVINHILKANAQVLGNNSRRRSQKFGVGDDDDFRDQGLTRPKVLIVVPFREAALRVVQLFISLLEGDSKKKIIVSNKKRFQGEYGSDPEERPPNLKRPEDYEAVFVGNIDDHFRIGVAILQRSIRLYAPFYSSDILIASPLGLRTIIGGEGEKKRDFDFLSSIELLIIDQADIYLMQNWEHVLHLMNHMNLLPLDSHGVDFSRVRMWSLNNWSKYYRQTLLFGALQDAQINSVFNKYCVNMQGQVAVRNVPMTGSISHVLVQLPHVFQRMEAENLASVIDARFNFFVNKILPQYRDAVMSHTLIYIPSYFDFVRLRNYFKKEELNFTHICEYTQKSGVSRARHFFLQGEKQFLLFTERFHFYKRYTIKGIRNLIFYELPTYPHFYSEICNMLRATNRGEEATWTCTVLYSKYDAQRLAAVVGVERAAQMLQSNKNVHLFITGEK
partner: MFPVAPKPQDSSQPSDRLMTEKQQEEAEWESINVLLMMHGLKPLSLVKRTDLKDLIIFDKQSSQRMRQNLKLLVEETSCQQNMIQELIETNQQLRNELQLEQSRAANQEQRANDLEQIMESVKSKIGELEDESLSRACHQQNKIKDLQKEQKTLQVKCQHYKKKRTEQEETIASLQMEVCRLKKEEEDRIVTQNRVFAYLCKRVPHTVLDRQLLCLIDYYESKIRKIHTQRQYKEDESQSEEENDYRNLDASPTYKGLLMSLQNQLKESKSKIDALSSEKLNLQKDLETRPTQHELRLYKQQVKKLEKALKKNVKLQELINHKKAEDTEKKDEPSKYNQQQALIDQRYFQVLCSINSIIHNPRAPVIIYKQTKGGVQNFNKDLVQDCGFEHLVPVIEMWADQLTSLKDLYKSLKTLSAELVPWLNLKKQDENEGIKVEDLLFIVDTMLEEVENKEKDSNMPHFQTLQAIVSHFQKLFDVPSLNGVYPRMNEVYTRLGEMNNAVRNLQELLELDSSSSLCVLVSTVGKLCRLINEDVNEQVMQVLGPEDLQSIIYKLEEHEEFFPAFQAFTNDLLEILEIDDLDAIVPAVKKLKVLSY
B5: Abl interactor 2 (Homo sapiens), Q9NYB9 (parent)
chain: B1 chain
partner: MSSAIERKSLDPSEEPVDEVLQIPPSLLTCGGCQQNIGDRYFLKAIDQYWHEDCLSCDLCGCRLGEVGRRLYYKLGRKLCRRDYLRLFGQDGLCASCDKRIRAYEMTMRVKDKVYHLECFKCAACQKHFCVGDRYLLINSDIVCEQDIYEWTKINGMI

Variants of: B1
Conditions: with syvm_human VARS2, Q5ST30

Row | effect of a mutation on the interaction | Variant
1 | with no effect | E202K

Variants of: B2
Conditions: with KRT20, P35900

Row | effect of a mutation on the interaction | Variant
2 | with no effect | R373C

Variants of: B2
Conditions: with KRT20, P35900
Remark: another data set of the same source

Row | effect of a mutation on the interaction | Variant
3 | with no effect | E202K

Variants of: B3
Conditions: with caco2_human CALCOCO2, Q13137

Row | effect of a mutation on the interaction | Variant
4 | with no effect | MMLSLNNLQNIIYNPVIPFVGTIPDQLDPGTLIVIRGHVPSDADRFQVDLQNGSSMKPRADVAFHFNPRFKRAGCIVCNTLINEKWGREEITYDTPFKREKSFEIVIMVLKDKFQVAVNGKHTLLYGHRIGPEKIDTLGIYGKVNIHSIGFSFSSDLQSTQASSLELTEISRENVPKSGTPQLRLPFAARLNTTMGPGRTVVVKGEVNANAKSFNVDLLAGKSKDIALHLNPRLNIKAFVRNSFLQESWGEEERNITSFPFSPGMYFEMIIYCDVREFKVAVNGVHSLEYKHRFKELSSIDTLEINGDIHLLEVRSW [P194T]

Variants of: B4
Conditions: with cep70_human CEP70, Q8NHQ1

Row | effect of a mutation on the interaction | Variant
5 | with no effect | D399E

Variants of: B5
Conditions: with rbtn2_human LMO2, P25791

Row | effect of a mutation on the interaction | Variant
6 | with no effect | E202K

— IntAct's records for PubMed 29892012
